In paper PMC5095173, “Disulfide-activated protein kinase G Iα regulates cardiac diastolic relaxation and fine-tunes the Frank–Starling response” (Nature Communications, 2016):

Experiments:
[1] = system: PKGIα (analogue-sensitive M438G), disulfide-activated; assay: Chemical genetic phosphoproteomic screen, disulfide-activated PKGIα M438G versus unactivated control; type: biochemical, human PKGIα; substrates in rat heart homogenate; conditions: for log2 fold changes: Group 2 (disulfide-activated) vs Group 3 (control)
How it was run: (§1)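 Analogue-sensitive human PKGIα mutants (M438G, air-oxidized to disulfide dimer; C42S/M438G, cGMP-activated), expressed in 293-F cells, thiophosphorylate substrates in rat left-ventricle lysate (20 mg ml) using N6-alkylated ATPγS. Thiophosphopeptides are recovered by covalent capture and identified with sites by LC–MS/MS, each compared against an unactivated control.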

[2] = system: PKGIα (analogue-sensitive C42S/M438G), cGMP-activated; assay: Chemical genetic phosphoproteomic screen, cGMP-activated PKGIα C42S/M438G versus unactivated control; type: biochemical, human PKGIα; substrates in rat heart homogenate; conditions: for log2 fold changes: Group 1 (cGMP-activated) vs Group 3 (control)
How it was run: as §1

| Molecule | log2 fold changes [1] | log2 fold changes [2] | log2 fold change Disulfide vs Control ([1]; control = PKGIα C42S/M438G) | log2 fold change cGMP vs Control ([2]; control = PKGIα C42S/M438G) |
| --- | --- | --- | --- | --- |
| Hadhb pS198 (protein, UniProt Q60587 35-475, looked up, phosphorylated at S198) Trifunctional enzyme subunit …: SAPAVQTKSKKTLAKPNLKNIVVVEGVRIPFLLSGTSYKDLMPHDLARAALSGLLYRTNIPKDVVDYIIFGTVIQEVKTSNVAREAALGAGFSDKTPAHTVTMACISSNQAMTTAVGLIASGQCDVVVAGGVELMSDVPIRHSRNMRKMMLDLNKAKTLAQRLSLLTKFRLNFLSPELPAVAEFSTNETMGHSADRLAAAFAVSRMEQDKYALRSHSLAKKAQDEGHLSDIVPFKVPGKDTVSKDNGIRPSSLEQMAKLKPAFIKPYGTVTAANSSFLTDGASAMLIMSEDRALAMGYKPKAYLRDFIYVSQDPKDQLLLGPTYATPKVLEKAGLTMNDIDAFEFHEAFSGQILANFKAMDSDWFAQNYMGRKTKVGAPPLEKFNIWGGSLSLGHPFGATGCRLVMAAANRLRKDGGQYALVAACAAGGQGHAMIVEAYPK | 0.04396 | 3.435 |  |  |
| Plcg1 pS1233 (protein, UniProt P10686 2-1290, looked up, phosphorylated at S1233) 1-phosphatidylinositol …: AGVGTPCANGCGPSAPSEAEVLHLCRSLEVGTVMTLFYSKKSQRPERKTFQVKLETRQITWSRGADKIEGSIDIREIKEIRPGKTSRDFDRYQEDPAFRPDQSHCFVILYGMEFRLKTLSLQATSEDEVNMWIKGLTWLMEDTLQAATPLQIERWLRKQFYSVDRNREDRISAKDLKNMLSQVNYRVPNMRFLRERLTDFEQRSGDITYGQFAQLYRSLMYSAQKTMDLPFLETNTLRTGERPELCQVSLSEFQQFLLEYQGELWAVDRLQVQEFMLSFLRDPLREIEEPYFFLDELVTFLFSKENSVWNSQLDAVCPETMNNPLSHYWISSSHNTYLTGDQFSSESSLEAYARCLRMGCRCIELDCWDGPDGMPVIYHGHTLTTKIKFSDVLHTIKEHAFVASEYPVILSIEDHCSIAQQRNMAQHFRKVLGDTLLTKPVDIAADGLPSPNQLKRKILIKHKKLAEGSAYEEVPTSVMYSENDISNSIKNGILYLEDPVNHEWYPHYFVLTSSKIYYSEETSSDQGNEDEEEPKEASGSTELHSSEKWFHGKLGAGRDGRHIAERLLTEYCIETGAPDGSFLVRESETFVGDYTLSFWRNGKVQHCRIHSRQDAGTPKFFLTDNLVFDSLYDLITHYQQVPLRCNEFEMRLSEPVPQTNAHESKEWYHASLTRAQAEHMLMRVPRDGAFLVRKRNEPNSYAISFRAEGKIKHCRVQQEGQTVMLGNSEFDSLVDLISYYEKHPLYRKMKLRYPINEEALEKIGTAEPDYGALYEGRNPGFYVEANPMPTFKCAVKALFDYKAQREDELTFTKSAIIQNVEKQDGGWWRGDYGGKKQLWFPSNYVEEMINPAILEPEREHLDENSPLGDLLRGVLDVPACQIAIRPEGKNNRLFVFSISMPSVAQWSLDVAADSQEELQDWVKKIREVAQTADARLTEGKMMERRKKIALELSELVVYCRPVPFDEEKIGTERACYRDMSSFPETKAEKYVNKAKGKKFLQYNRLQLSRIYPKGQRLDSSNYDPLPMWICGSQLVALNFQTPDKPMQMNQALFMAGGHCGYVLQPSTMRDEAFDPFDKSSLRGLEPCVICIEVLGARHLPKNGRGIVCPFVEIEVAGAEYDSTKQKTEFVVDNGLNPVWPAKPFHFQISNPEFAFLRFVVYEEDMFSDQNFLAQATFPVKGLKTGYRAVPLKNNYSEDLELASLLIKIDIFPAKENGDLSPFSGTSLRERASDASSQLFHVRAREGSFEARYQQPFEDFRISQEHLADHFDSRERRAPRRTRVNGDNRL |  |  | 1.819 | 4.5 |
| Hdlbp pS74 (protein, UniProt Q9Z1A6 2-1268, looked up, phosphorylated at S74) Vigilin: SSVAVLTQESFAEHRSGLVPQQIIVATLNSEEESDPPTYKDAFPPLPEKAACLESAQEPAGAWSNKIRPIKASVITQVFHVPLEERKYKDMNQFGEGEQAKICLEIMQRTGAHLELSLAKDQGLSIMVSGKLDAVMKARKDIVARLQTQASATVPIPKEHHRFVIGKNGEKLQDLELKTATKIQIPRPDDPSNQIKITGTKEGIEKARHEVLLISAEQDKRAVKRLEVEKAFHPFIAGPYNRLVGEIMQETGTRINIPPPSVNRTEIVFTGEKEQLAQAVARIKKIYEEKKKKTTTIAVEVKKSQHKYVIGPKGNSLQEILERTGVSVEIPPSDSISETVILRGEPEKLGQALTEVYAKANSFTVSSVSAPSWLHRFIIGKKGQNLAKITHQMPKVHIEFTEGEDKITLEGPTEDVNVAQEQIEGMVKDLINRMDYVEINIDHKFHRHLIGKSGANINRIKDQYKVSVRIPPDSEKSNLIRIEGDPQGVQQAKRELLELASRMENERTKDLIIEQRFHRTIIGQKGERIREIRDKFPEVIINFPDPAQKSEIVQLRGPKNEVEKCTKYMQKMVADLVENSYSISVPIFKQFHKNIIGKGGANIKKIREESNTKIDLPAENSNSETIVITGKRANCEAARSRILSIQKDLANIAEVEVSIPAKLHNSLIGTKGRLIRSIMEECGGVHIHFPVEGSGSDTVVIRGPSSDVEKAKKQLLHLAEEKQTKSFTVDIRAKPEYHKFLIGKGGGKIRKVRDSTGARIIFPAAEDKDQDLITIIGKEDAVREAQKELEALIQNLDNVVEDYMLVDPRHHRHFVIRRGQVLREIAEEYGGVMVSFPRSGTQSDKVTLKGAKDCVEAAKKRIQEIIEDLEAQVTLECAIPQKFHRSVMGPKGSRIQQITRDYNVQIKFPDREENPVHSVEPSIQENGDEAGEGREAKETDPGSPRRCDIIVISGRKEKCEAAKEALEALVPVTIEVEVPFDLHRYIIGQKGSGIRKMMDEFEVNIHVPAPELQSHTIAITGLAANLDRAKAGLLDRVKELQAEQEDRALRSFKLSVTVDPKYHPKIIGGKGAVITQIRLEHDVNIQFPDKDDGNQPQDQITITGYEKNTEAARDAILKIVGELEQMVSEDVPLDHRVHARIIGARGKAIRKIMDEFKVDIRFPQSGAPDPNCVTVTGLPENVEEAIDHILNLEEEYLADVVDSEALQVYMKPPAHEESKAPSKGFVVRDAPWTSNSSEKAPDMSSSEEIPTFGAQVAPKTLPWGPKR | 0.4352 | 3.955 |  |  |
| Acadvl pT513 (protein, UniProt P45953 41-655, looked up, phosphorylated at T513) Very long-chain specific …: ASEATQAVLEKPETLSSDASTREKPARAESKSFAVGMFKGQLTTDQVFPYPSVLNEGQTQFLKELVGPVARFFEEVNDPAKNDSLEKVEEDTLQGLKELGAFGLQVPSELGGLGLSNTQYARLAEIVGMHDLGVSVTLGAHQSIGFKGILLYGTKAQKEKYLPRVASGQALAAFCLTEPSSGSDVASIRSSAVPSPCGKYYTLNGSKIWISNGGLADIFTVFAKTPIKDAATGAVKEKITAFVVERSFGGVTHGLPEKKMGIKASNTSEVYFDGVKVPAENVLGEVGDGFKVAVNILNNGRFGMAATLAGTMKAIIAKAVDHATNRTQFGDKIHNFGVIQEKLARMAILQYVTESMAYMLSANMDQGFKDFQIEAAISKIFGSEAAWKVTDECIQIMGGMGFMKEPGVERVLRDIRIFRIFEGTNDILRLFVALQGCMDKGKELTGLGNALKNPLGNVGLLIGEASKQLRRRTGIGSGLSLSGIVHPELSRSGELAVQALEQFATVVEAKLMKHKKGIVNEQFLLQRLADGAIDLYAMVVVLSRASRSLSEGYPTAQHEKMLCDSWCIEAATRIRENMASLQSNPQQQELFRNFRSISKAMVENGGLVTSNPLRV | -0.899 | 3.595 |  |  |
